According to patent US20100229252, “MEGANUCLEASE VARIANTS CLEAVING A DNA TARGET SEQUENCE FROM THE HUMAN HEMOGLOBIN BETA GENE AND USES THEREOF” (CELLECTIS, published 2010):
Substitutions are numbered along the chain they refer to.

What was measured:
Test in all cases: cell_activity; CHO extrachromosomal LacZ assay
[1] = target: T1, I-CreI heterodimer HBB5.3_B2 / HBB5.4_A6 (Chlamydomonas reinhardtii, UniProt P05725;P05725 SEQ:1-167,SEQ:1-167)
T1 chain 1: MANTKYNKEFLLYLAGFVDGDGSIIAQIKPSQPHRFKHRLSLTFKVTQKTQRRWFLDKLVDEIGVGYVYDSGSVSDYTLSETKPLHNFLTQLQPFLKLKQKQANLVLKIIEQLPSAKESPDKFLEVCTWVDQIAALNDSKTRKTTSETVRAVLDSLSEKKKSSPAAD
T1 chain 2: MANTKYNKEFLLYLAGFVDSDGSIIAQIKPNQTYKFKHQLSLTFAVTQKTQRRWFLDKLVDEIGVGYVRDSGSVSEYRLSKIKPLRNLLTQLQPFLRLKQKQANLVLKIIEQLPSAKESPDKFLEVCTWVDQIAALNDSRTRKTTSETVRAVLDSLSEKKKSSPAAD
Description: (§1) Several I-CreI refined mutants able to efficiently cleave the HBB 5 target in yeast when forming heterodimers were identified in example 7. In order to validate and characterize the heterodimer displaying the maximal efficacy to cleave the HBB 5 sequence in CHO cells, the efficiency of combinations of mutants able to cut the HBB 5 target were tested using an extrachromosomal assay in mammalian cells.
(§2) CHO cells were transfected with Polyfect® transfection reagent according to the supplier's protocol (QIAGEN). 72 hours after transfection, culture medium was removed and 150 μl of lysis/revelation buffer for β-galactosidase liquid assay was added (typically 1 liter of buffer contained: 100 ml of lysis buffer (Tris-HCl 10 mM pH7.5, NaCl 150 mM, Triton X100 0.1%, BSA 0.1 mg/ml, protease inhibitors), 10 ml of Mg 100×buffer (MgCl₂ 100 mM, β-mercaptoethanol 35%), 110 ml ONPG 8 mg/ml and 780 ml of sodium phosphate 0.1M pH7.5). After incubation at 37° C., OD was measured at 420 nm. The entire process was performed on an automated Velocity11 BioCel platform. Per assay, 150 ng of target vector was cotransfected with 12.5 ng of each HBB5 mutant expression vector (12.5 ng of vector encoding the mutant cleaving the palindromic HBB5.3 target and 12.5 ng of vector encoding the mutant cleaving palindromic HBB5.4 target).

[2] = target: T2, I-CreI heterodimer HBB5.3_A2 / HBB5.4_B1 (Chlamydomonas reinhardtii, UniProt P05725;P05725 SEQ:1-167,SEQ:1-167)
T2 chain 1: T1 chain 1 with R35K
T2 chain 2: T1 chain 2 with I25V, R86H, L88F, R97K, R140K
Description: as §1, §2

[3] = target: T3, I-CreI heterodimer HBB5.3_A3 / HBB5.4_B1 (Chlamydomonas reinhardtii, UniProt P05725;P05725 SEQ:1-167,SEQ:1-167)
T3 chain 1: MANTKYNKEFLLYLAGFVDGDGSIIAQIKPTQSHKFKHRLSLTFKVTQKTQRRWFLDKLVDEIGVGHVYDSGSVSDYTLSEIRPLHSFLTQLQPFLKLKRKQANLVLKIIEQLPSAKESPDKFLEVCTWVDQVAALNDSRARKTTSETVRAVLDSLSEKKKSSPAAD
T3 chain 2: T1 chain 2 with I25V, R86H, L88F, R97K, R140K
Description: as §1, §2

[4] = target: T4, I-CreI heterodimer HBB5.3_E3 / HBB5.4_A6 (Chlamydomonas reinhardtii, UniProt P05725;P05725 SEQ:1-167,SEQ:1-167)
T4 chain 1: T3 chain 1 with T50A
T4 chain 2: T1 chain 2
Description: as §1, §2

[5] = target: T5, I-CreI heterodimer HBB5.3_A3 / HBB5.4_A5 (Chlamydomonas reinhardtii, UniProt P05725;P05725 SEQ:1-167,SEQ:1-167)
T5 chain 1: T3 chain 1
T5 chain 2: T1 chain 2 with K83R, R86H, R97K, V130A, R140K
Description: as §1, §2

[6] = target: T6, I-CreI heterodimer HBB5.3_B2 / HBB5.4_A5 (Chlamydomonas reinhardtii, UniProt P05725;P05725 SEQ:1-167,SEQ:1-167)
T6 chain 1: T1 chain 1
T6 chain 2: T1 chain 2 with K83R, R86H, R97K, V130A, R140K
Description: as §1, §2

[7] = target: T7, I-CreI heterodimer HBB5.3_E3 / HBB5.4_B1 (Chlamydomonas reinhardtii, UniProt P05725;P05725 SEQ:1-167,SEQ:1-167)
T7 chain 1: T3 chain 1 with T50A
T7 chain 2: T1 chain 2 with I25V, R86H, L88F, R97K, R140K
Description: as §1, §2

[8] = target: T8, I-CreI heterodimer HBB5.3_A2 / HBB5.4_A5 (Chlamydomonas reinhardtii, UniProt P05725;P05725 SEQ:1-167,SEQ:1-167)
T8 chain 1: T1 chain 1 with R35K
T8 chain 2: T1 chain 2 with K83R, R86H, R97K, V130A, R140K
Description: as §1, §2

[9] = target: T9, I-CreI heterodimer HBB5.3_B2 / HBB5.4_B1 (Chlamydomonas reinhardtii, UniProt P05725;P05725 SEQ:1-167,SEQ:1-167)
T9 chain 1: T1 chain 1
T9 chain 2: T1 chain 2 with I25V, R86H, L88F, R97K, R140K
Description: as §1, §2

[10] = target: T10, I-CreI heterodimer HBB5.3_E3 / HBB5.4_A5 (Chlamydomonas reinhardtii, UniProt P05725;P05725 SEQ:1-167,SEQ:1-167)
T10 chain 1: T3 chain 1 with T50A
T10 chain 2: T1 chain 2 with K83R, R86H, R97K, V130A, R140K
Description: as §1, §2

B1: HBB5 (dsDNA)
DNA 1: CAAGACAGGTTTAAGGAGACCA
DNA 2: TGGTCTCCTTAAACCTGTCTTG
[1]
  activity: 0.54 absorbance units
[2]
  activity: 0.42 absorbance units
[3]
  activity: 0.2 absorbance units
[4]
  activity: 0.71 absorbance units
[5]
  activity: 0.86 absorbance units
[6]
  activity: 0.5 absorbance units
[7]
  activity: 0.37 absorbance units
[8]
  activity: 0.78 absorbance units
[9]
  activity: 0.33 absorbance units
[10]
  activity: 0.46 absorbance units
